The results in this text go back to a protein production outcome set (Wang et al. 2014).

This data set can be described thus: label from the status in PepcDB records.
Take “MKKLFMSAVALLFAGALWAQENPLWMRHCAISPDGTTIAFTYKGDIFTVPVSGGKATQITTNPAFDTTPIWSPDSKQIAFASDRMGSMDVFIVSKDGGEPRRLTTFSGGETPVAFTDAGHILFTADIMPSTEDAGFPSNGQFQQIYQIPVSGGRPVMFSSMPMECISINKEGTILYQDKKGYEDYWRKHQKSPIARDIWMLRPGQTPRYEKQTTFIGEDREPVWAPDGKSFYYLSEENGTFNVYQRTPGSDTSKQVTHHKQHPVRFLSMASNGNLCYGFDGEIYTLAPGGKPQKVSVKILSDRNDKDLIRQIKTSGATEMAVSPDGKEVAFILRGDVYVTSVEYKTTKQVTNTPCQERGIDFAPDGRTLVYASERGGLWQLYTSTIVRKDEKQFTYATELKEERLTNSDIASFNPKYSPDGKEIAFLENRTAIRVINLKTKKVRTVMDAQYQYSYSDGDQWFEWSPDSKWILSEFIGIGGWNNKDIVLLNADGKGEMHNLTESGYSDGNAKWVLGGKAMVWFSDRAGYRSHGSWGAQYDAYIMFFDVDAYDRFRMNKEDLALLEEAEKAEKAEKEKAEKKKKENKKDDKKKDAKEKNKKDGDEEKKEEVKPLKFDLDNRFDRIVRLTVNSSFMGDAVLTPKGDKLYYLAAFESGYDLWEHDLKENSTKILLKGVGGGSLLPDKKGENIFMCTGGGMKKIEIAGSKTTPIAFESFFDYQPGGERAYIFDHVWQQVDDKFYVKDLQGVDWPLYKKSYEKFLPYINNNYDFAELLSEMLGELNASHTGARYSGAGGALATAALGVFYDDTYNGDGLKIKEIIEQGPFTLKKTDVKPGCIIEKVDGTLIKKGEDYFPLFEGKVGRKVLLSVYDPATKKRFEETVKAISYGAQRELLYKRWVERNRKKVEELSGGRLGYVHIKGMDSQSFRKMYSELLGRYRNKEAVVVDVRHNGGGWLHDDVVTLLSGKEYQRFVPRGQYIGSDPFNKWLKPSCMLVCEDNYSNAHGTPYVYKTLGIGKLVGTPVAGTMTAVWWERQIDPSLVFGIPQVGCMDMQGNYLENHTLEPDVLIYNEPAASLKGEDAQLKAAVDCLLKELPKK”: the protein production entry is reported as “failed”. Then “MKKLIIAALGLTLILSGCAPKLDSNDKVVQKDDKKAETGIMTKNQISSNYYKTVLPYKASKSRGLVVSNIYSRYDINELESGLMRVSQNKYSPDNYLFQEGQYLDKETLEKWLDRKSEKNPNGLNPESNGDGKDRKPIYLAHILEQDYLKQTDKDTVALGGISIALAMNSVDYYQKEQYGDTFEQEISDSDLLAQGKEMSGTVLNRIRQTKGLENVPVTIAIYKQGPRDAVAPGNFLTYATANGDSLSSWKDVEEKNYVLPSTESAKDHKTDNDNFLNFKKAIEDYYPNFTGVVGRARYEDGQLAELSIDIPLQFYGQAEIIGFTQYVTDLVGQHIPKTADLQVNISTSDGPAALITRKANEDAATAHIYD”, with “failed”. Then “MKKLLRNLFGSGREEEKRSASDAMSGREQIVTNSEKSNLSTDPDHVNRQADTLKFDAIRAMNMGELVFATEALRKAMELRPEFETRYYLTEALLRRHLTEEALAQMNLLLEEVPMHTATLLNRAKLRLEQNDPSRALEDCGTGIESTSELEEQALFLYYGASAMKDMKNLKDALCLLKQAIEKNDAFIPARLLRARILIDLERYEEATQDLDWVAASDPEEEQVPMLRARLFMLEGKQQNAIQAYEELLSLDPFNEEGHCGIATLMIKEGRSAEAETFLREAIEEMPVQRNLILMLVEILENKGQTQEAAEWRAKLPEAEVESEAVNFNDLYKGNLY”, with “failed”. The value for “MKKMAAAESMEAEICINREIPPGLFPAVKGTDDLMAEGDIMSLLESIKKTEGGSGEVSVEDKMDEIFAKLEKSQVLLIQGDTGCGKTTKIPKYLLRKYGKIVCSQPRRIAAVSIAKKVAVDMKGKIGEDVGYSIRFDDMSSGRTRLKYVTDGVLLREIKNDKHLKKYDVVIIDEAHERSVNIDILLGYLKSILSERKDLRVVIMSATLNSEKFASFFRCQTVEIRHRMFPLEIFFLKKSDVADYVDEAMKTVVQIHRGEESGDILVFLTGRDEINSGREILMEVLGNDAEVCCIYSTLSPEEQEAVFRKTKKRKIVLATNIAETSITIEGVRYVVDSGRAKQMRYSASFGMDILEVVWISKAQAKQRAGRAGRTQAGKVFRMYSKEEYQKMDDNTTPEIFCCNLGKIVLELKSIGVDDIVNFNLIDKPDASNVKKALEMLYYLRAIGGDGKITSIGVKASTIPLDPELAVSLIVSSELGCLEDVSIIAAMLSVGNVWLDVPRYSQSYKAFLGARAAHFDKRGDHFLLLKIYRRWEKTGFKISHLKRWFLNVKTMLQTVKIKKQLCSMFRSPCKSDESGILPSLCAGYFMNVAKLVGESYVSIFNDTPCFIHYTSCMSRQNAKYILYHTLCRTGKEYARYCVGVTLEDLLKGANHMFAKVRKTEK” was “failed”; that for “MKKMLKVMLATLVLGWAVMAHAEDPHVEYTDAIGKGDLKVVKQYFNNPYKVDELFFAWSGLEIAANKGQLEMVKFFVENGADVNYKHPITKMTALHLAAYQGNKDVVKYLIDHGADVNAKLRGNVSILRALRDEGRTDMVDFLIAAGAKDDGCQEKKCY” was “failed”; that for “MKKMLPESKVESIRKEGFLNRAVEAYRFFYPTVSNVSNFKALHDLGITENHDFIIQLTTPDLNVLTQNSDTPYCLGTGNTENGPVVIELPLGAIVGVADDINFKFITNMGLTGDEEGKGAKYLYLPPNYDGDIPEGYIVRKPSSFRFLICLRAMVHQASDYEKAFELLKTVKFYPLKEAKNNPTSTFHDFSHRKAISTPYYVEGKFDYWEVIKWALDNDETDPEYYQMYGLLKAIGLAPNKEFNPDSDTKALLIEAAEKADKMMFVNSFNTDDPAAIVWPGKNWEWAVYGENNDFYEKTYLNLPVRERWFYQATLETHMMFMHKVGFGSVYMLGVKDKEGNYLDGGKSYTLKVPTPVPTSIFWSVTVYEMDTRSEIVTEQFMPALNSIKDTFEADADGNTTLYFGPNPPEDESLPWIQTVPDANWFTYFRIYGPTEPAFDNSWQLYDFEEVK” was “failed”.

With “MKKNHVVIGVIIVAALALLFTLSIQIARLILGDGPMVSSGEGVGYVEVKGPILESEEIVKQLSEMRKKTNVKAVVLRIESPGGVIGPSQEIYEAVKKLAKTKKVVVSMGSVAASGGYHIAIPAAVIYANPGTITGSIGVLMKLANVEGLMDKVGMKAFTLKSGKFKDAGSPVRALTDEDRALLQGVIDNLHTQFVKAVAEARKLPVEEVRRLADGRVYTGEQAVSLKLVDRLGTLEDAVEEAGRLAGIKGEPTLLMPPKKRKHLRDYLLEEASGFFREIVRREGGFSVNYELDPAVGNGGRLEHHHHHH”, the protein production entry is “not failed”.

Take “MKKNLLYLSCALMCMLGFLSSCKDDEKEIPPVVEDVVAQYTGDKVKVTLGGEAVSGDAQIDLVQQDDKSLTIKLLNIIPDVKEFSIPNAEFEATTRSAYISKLSGKVSNAVVGYDVTFEGVVDEGVLTASITATEIKGDSINAKKAGLTGKTFKGKMTINVSNIPTPIEMEQRVYTSVVSKDTSAIKLKINDFAFQGLKLGDISLDTVAVRHRGEQDGKPIYGFKTKSQEMTLEAVGKVLIDANGTIIGEKMELSLNVNAVTAGLTVGVDFSGNIVEESTDTKATITVTGDAVAEGVTVSGNTYTFKVWESTPDDQLVFIPKIEIPATAVLDSIIIYDNRNKKVSAVEPNTAIDFSQLKENYYVGYHVTPEDIRYPSKKMLKMVRIAELNPVYDMATWVADGDFEKPNGLTTSNLAAAFFPMFGIDVPTPVVKASDNAAEITTSRTVSATLPSTLVPGVTAGTMFLGEFKVDITNTLKSTHFGVPYRVKPVNFKITYKYTPGTTFYKTVVKNNANDTEVVPNEKDECSINAYLYEVDSYAETLDGTNINTSNKVIMKAVLEDGSAKADYVTLTIPFKETGNGSFDPTKKKYKLAIVCSSSKKGDQFMGADGSKLWVKYLEVTR”: the protein production entry was “failed”. The value for “MKKPVYMKGGLHWLRNDGAIVAFNPETEKARLISIRFPKELCSKTLFTAADNNLILISATEEVFYVYAVENILTDPKWVVLKQIRNGVLDEKMLYSWYPEAYDGKCLMLREILKKDHYKQVLHGYDLRANKWEVIGSIPGWYTSALDFYQFTPSLSSVIGPDAKEEEEILACDHKKISSINSIIRMLDGISS” was “failed”; that for “MKKRFCFVIITLLLIFILGSCNKVTSIRRLQELEEGVSNPNTEAELKDAIRKYEKRVDDIMIAEERIGIWYKILGSRYMDQKMYKKALKAFQSALEYYPENQNLFYQAGLAASLTAKNSLDFELTGTDIEKKRYFDLAVSAYKRALEIDPKHAKAVYALSVLYIFELNRPTEAIPILEKITEWEKKPIDHLFLLGAAYYMTGENEKAIAVYERIIEISSSAEKKAKAESNIREIRSSGGR” was “failed”.
